# US20110105407A1
# Target: proMMP-9 (UniProt P14780)
# Test: cell-based or functional assay
# Chain of proMMP-9 (P14780 20-707 limits assumed): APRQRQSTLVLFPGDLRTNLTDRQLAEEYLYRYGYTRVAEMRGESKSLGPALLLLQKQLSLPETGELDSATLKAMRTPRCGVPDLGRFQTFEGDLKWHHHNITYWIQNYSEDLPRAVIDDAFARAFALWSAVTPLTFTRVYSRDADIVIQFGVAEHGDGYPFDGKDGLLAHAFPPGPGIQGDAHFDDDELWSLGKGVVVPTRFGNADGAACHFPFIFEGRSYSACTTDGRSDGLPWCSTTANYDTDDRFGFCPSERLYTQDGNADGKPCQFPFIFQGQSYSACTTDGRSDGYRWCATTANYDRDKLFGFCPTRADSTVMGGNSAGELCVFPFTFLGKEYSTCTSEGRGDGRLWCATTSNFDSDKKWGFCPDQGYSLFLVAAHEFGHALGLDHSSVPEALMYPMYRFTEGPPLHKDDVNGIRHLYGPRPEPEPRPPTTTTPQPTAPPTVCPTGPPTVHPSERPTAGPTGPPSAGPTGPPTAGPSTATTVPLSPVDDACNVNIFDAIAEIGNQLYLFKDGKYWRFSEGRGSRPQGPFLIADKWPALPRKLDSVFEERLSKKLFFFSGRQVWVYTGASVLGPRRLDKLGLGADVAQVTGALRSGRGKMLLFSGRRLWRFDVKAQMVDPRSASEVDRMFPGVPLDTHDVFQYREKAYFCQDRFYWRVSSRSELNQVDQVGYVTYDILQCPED
substance,measurement,value
TIMP-1-GPI (from UniProt P01033 24-207; P19256 202-237),release of proMMP-9 from RCC-53 into the medium (gelatinase zymography); concentration from which a decrease was seen,10 ng/mL
